Experiment [1] has as its target c-Met receptor on OVCAR-8 cells (human) (UniProt P08581). As to the kind of experiment: cell-based or functional assay.
The target in experiment [2] is human c-Met ECD (human) (UniProt P08581). As to the kind of experiment: SPR (Biacore T100), antibody captured by anti-Fc gamma antibody, c-Met ECD as analyte, 25 C. On the technique in general: SPR reads the build-up and loss of mass on a sensor chip optically.

For “BsAB02, trivalent bispecific <ErbB-2-c-Met> antibody (full length trastuzumab with one single chain Fab fragment of c-Met 5D5 (humanized) at the C-terminus of the knob heavy chain) (bispecific antibody)”, in experiment [1], the % Internalization of c-Met after 1 hour on OVCAR-8 cells (=100-% antibody on cell surface) is -7% and the % c-Met receptor on OVCAR-8 cell surface measured after 1 hour was 107%. The Kd (commonly the concentration at which binding is half-saturated) in experiment [2] was found to be 8.2 nM.

These data come from US20100254988A1.
